In US20190170753A1 (ICAHN SCHOOL OF MEDICINE AT MOUNT SINAI, published 2019):

Experiments:
HCV core peptide 48 = molecular target: T1, HCV core peptide 48 (hepatitis C virus, HELM PEPTIDE1{[O=C1N[C@H]2[C@H](CS[C@H]2CCCCC(=O)[*:2])N1].S.G.S.G.G.W.L.L.S.P.R.G.S.R.P.S.W.G.P.[am]}$$$$V2.0; SMILES …); assay: peptide EIA
T1 construct: also called aa 95-109
T1 peptide: SGSGGWLLSPRGSRPSWGP

HCV core peptide 5 = molecular target: T2, HCV core peptide 5 (hepatitis C virus, N-terminal biotin; C-terminal amide); assay: peptide EIA, 2 ug/mL IgG;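 further: purified mouse IgG binding to individually well-coated synthetic peptides, detected with peroxidase anti-mouse IgG Fc and o-phenylenediamine, IgG incubated at least 1 h at room temperature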
T2 construct: range 9-23
Description: (§1) The coated plates were kept dry in a sealed foil pouch and stored at <10 degrees C. until ready for use. A peptide coated plate for each test antibody was blocked using 3% BSA in PBS with 0.5% Tween 20. The blocked plates were washed with distilled water and a 2 ug/mL solution of purified IgG from each test sample diluted in BSA block solution was added to each peptide coated well of the blocked plate and allowed to incubate at room temperature for at least one hour. Following incubation the plates were washed with distilled water. A 200 ng/mL solution of peroxidase labeled F(ab′)2 fragment goat anti-mouse IgG Fc fragment specific (Jackson Immunoresearch) in BSA block solution was added to all wells and incubated at room temperature for 30 minutes. The plates were washed with distilled water and o-phenylenediamine substrate was used as the chromagen to generate signal. Plates were read at 492 nm and the results were analyzed.

HCV core peptide 12 = molecular target: T3, HCV core peptide 12 (hepatitis C virus, N-terminal biotin; C-terminal amide); assay: peptide EIA, 2 ug/mL IgG;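 further: purified mouse IgG binding to individually well-coated synthetic peptides, detected with peroxidase anti-mouse IgG Fc and o-phenylenediamine, IgG incubated at least 1 h at room temperature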
T3 construct: range 23-37
Description: as §1

HCV core peptide 13 = molecular target: T4, HCV core peptide 13 (hepatitis C virus, N-terminal biotin; C-terminal amide); assay: peptide EIA, 2 ug/mL IgG;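 further: purified mouse IgG binding to individually well-coated synthetic peptides, detected with peroxidase anti-mouse IgG Fc and o-phenylenediamine, IgG incubated at least 1 h at room temperature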
T4 construct: range 25-39
Description: as §1

HCV core peptide 15 = molecular target: T5, HCV core peptide 15 (hepatitis C virus, N-terminal biotin; C-terminal amide); assay: peptide EIA, 2 ug/mL IgG;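 further: purified mouse IgG binding to individually well-coated synthetic peptides, detected with peroxidase anti-mouse IgG Fc and o-phenylenediamine, IgG incubated at least 1 h at room temperature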
T5 construct: range 29-43
Description: as §1

HCV core peptide 22 = molecular target: T6, HCV core peptide 22 (hepatitis C virus, N-terminal biotin; C-terminal amide); assay: peptide EIA, 2 ug/mL IgG
T6 construct: range 43-57
Description: as §1

HCV core peptide 23 = molecular target: T7, HCV core peptide 23 (hepatitis C virus, N-terminal biotin; C-terminal amide); assay: peptide EIA, 2 ug/mL IgG
T7 construct: range 45-59
Description: as §1

HCV core peptide 24 = molecular target: T8, HCV core peptide 24 (hepatitis C virus, N-terminal biotin; C-terminal amide); assay: peptide EIA, 2 ug/mL IgG
T8 construct: range 47-61
Description: as §1

HCV core peptide 28 = molecular target: T9, HCV core peptide 28 (hepatitis C virus, N-terminal biotin; C-terminal amide); assay: peptide EIA, 2 ug/mL IgG
T9 construct: range 55-69
Description: as §1

HCV core peptide 31 = molecular target: T10, HCV core peptide 31 (hepatitis C virus, N-terminal biotin; C-terminal amide); assay: peptide EIA, 2 ug/mL IgG
T10 construct: range 61-75
Description: as §1

HCV core peptide 32 = molecular target: T11, HCV core peptide 32 (hepatitis C virus, N-terminal biotin; C-terminal amide); assay: peptide EIA, 2 ug/mL IgG
T11 construct: range 63-77
Description: as §1

HCV core peptide 34 = molecular target: T12, HCV core peptide 34 (hepatitis C virus, N-terminal biotin; C-terminal amide); assay: peptide EIA, 2 ug/mL IgG
T12 construct: range 67-81
Description: as §1

HCV core peptide 36 = molecular target: T13, HCV core peptide 36 (hepatitis C virus, N-terminal biotin; C-terminal amide); assay: peptide EIA, 2 ug/mL IgG
T13 construct: range 71-85
Description: as §1

HCV core peptide 41 = molecular target: T14, HCV core peptide 41 (hepatitis C virus, N-terminal biotin; C-terminal amide); assay: peptide EIA, 2 ug/mL IgG
T14 construct: range 81-95
Description: as §1

HCV core peptide 45 = HCV core peptide 45 (hepatitis C virus, N-terminal biotin; C-terminal amide); assay: peptide EIA, 2 ug/mL IgG
Description: as §1

HCV core peptide 49 = molecular target: T15, HCV core peptide 49 (hepatitis C virus, HELM PEPTIDE1{[O=C1N[C@H]2[C@H](CS[C@H]2CCCCC(=O)[*:2])N1].S.G.S.G.L.L.S.P.R.G.S.R.P.S.W.G.P.T.D.[am]}$$$$V2.0; SMILES …); assay: peptide EIA, 2 ug/mL IgG
T15 peptide: SGSGLLSPRGSRPSWGPTD
Description: as §1

HCV core peptide 52 = molecular target: T16, HCV core peptide 52 (hepatitis C virus, HELM PEPTIDE1{[O=C1N[C@H]2[C@H](CS[C@H]2CCCCC(=O)[*:2])N1].S.G.S.G.S.R.P.S.W.G.P.T.D.P.R.R.R.S.R.[am]}$$$$V2.0; SMILES …); assay: peptide EIA, 2 ug/mL IgG
T16 peptide: SGSGSRPSWGPTDPRRRSR
Description: as §1

HCV core peptide 54 = molecular target: T17, HCV core peptide 54 (hepatitis C virus, HELM PEPTIDE1{[O=C1N[C@H]2[C@H](CS[C@H]2CCCCC(=O)[*:2])N1].S.G.S.G.W.G.P.T.D.P.R.R.R.S.R.N.L.G.K.[am]}$$$$V2.0; SMILES …); assay: peptide EIA, 2 ug/mL IgG
T17 peptide: SGSGWGPTDPRRRSRNLGK
Description: as §1

HCV core peptide 55 = molecular target: T18, HCV core peptide 55 (hepatitis C virus, HELM PEPTIDE1{[O=C1N[C@H]2[C@H](CS[C@H]2CCCCC(=O)[*:2])N1].S.G.S.G.P.T.D.P.R.R.R.S.R.N.L.G.K.V.I.[am]}$$$$V2.0; SMILES …); assay: peptide EIA, 2 ug/mL IgG
T18 construct: also called aa 109-123
T18 peptide: SGSGPTDPRRRSRNLGKVI
Description: as §1

HCV core peptide 57 = HCV core peptide 57 (hepatitis C virus, N-terminal biotin; C-terminal amide); assay: peptide EIA, 2 ug/mL IgG
Description: as §1

HCV core peptide 58 = HCV core peptide 58 (hepatitis C virus, N-terminal biotin; C-terminal amide); assay: peptide EIA, 2 ug/mL IgG
Description: as §1

HCV core peptide 60 = HCV core peptide 60 (hepatitis C virus, N-terminal biotin; C-terminal amide); assay: peptide EIA, 2 ug/mL IgG
Description: as §1

HCV core peptide 61 = molecular target: T19, HCV core peptide 61 (hepatitis C virus, N-terminal biotin; C-terminal amide); assay: peptide EIA, 2 ug/mL IgG
T19 construct: range 121-135
Description: as §1

HCV core peptide 62 = molecular target: T20, HCV core peptide 62 (hepatitis C virus, N-terminal biotin; C-terminal amide); assay: peptide EIA, 2 ug/mL IgG
T20 construct: range 123-137
Description: as §1

HCV core peptide 64 = HCV core peptide 64 (hepatitis C virus, N-terminal biotin; C-terminal amide); assay: peptide EIA, 2 ug/mL IgG
Description: as §1

HCV core peptide 67 = HCV core peptide 67 (hepatitis C virus, N-terminal biotin; C-terminal amide); assay: peptide EIA, 2 ug/mL IgG
Description: as §1

HCV core peptide 74 = HCV core peptide 74 (hepatitis C virus, N-terminal biotin; C-terminal amide); assay: peptide EIA, 2 ug/mL IgG
Description: as §1

HCV core peptide 79 = molecular target: T21, HCV core peptide 79 (hepatitis C virus, N-terminal biotin; C-terminal amide); assay: peptide EIA, 2 ug/mL IgG
T21 construct: range 157-171
Description: as §1

HCV core peptide 83 = molecular target: T22, HCV core peptide 83 (hepatitis C virus, N-terminal biotin; C-terminal amide); assay: peptide EIA, 2 ug/mL IgG
T22 construct: range 165-179
Description: as §1

B1: Neo4 mouse monoclonal antibody (antibody, V domains shown)
VH: QIQLKESGPAVIKPSQSLSLTCIVSGFSITSSVYCWQWIRQPPGKGLEWMGRICYDGSVDYSPSITSRGTISRDTSLNKVFFQLSSVTNEDTAMYYCSRENHIDYYDTTYPSFDVWGAGTTVTVSS
VL: DIVLTQSPASLIVSLGQRATISCRASKSVNEYGYTYMHWYQQKPGLPPKLLIYLASNLDSGVPARFSGSGSGTDFTLNIHPVEEEDAATYYCQHSRELPYTFGGGTKLEIKR
notes: Mouse hybridoma antibody, isotype IgG1, purified with Protein G; also called HCV Neo4
binding result (HCV core peptide 48): no binding
OD (A492 nm) (HCV core peptide 5): 0.05 OD
OD (A492 nm) (HCV core peptide 12): 0.07 OD
OD (A492 nm) (HCV core peptide 13): 0.05 OD
OD (A492 nm) (HCV core peptide 15): 0.06 OD
OD (A492 nm) (HCV core peptide 22): 0.07 OD
OD (A492 nm) (HCV core peptide 23): 0.05 OD
OD (A492 nm) (HCV core peptide 24): 0.05 OD
OD (A492 nm) (HCV core peptide 28): 0.04 OD
OD (A492 nm) (HCV core peptide 31): 0.05 OD
OD (A492 nm) (HCV core peptide 32): 0.06 OD
OD (A492 nm) (HCV core peptide 34): 0.04 OD
OD (A492 nm) (HCV core peptide 36): 0.05 OD
OD (A492 nm) (HCV core peptide 41): 0.04 OD
OD (A492 nm) (HCV core peptide 45): 0.04 OD
OD (A492 nm) (HCV core peptide 49): 0.05 OD
OD (A492 nm) (HCV core peptide 52): 0.93 OD
OD (A492 nm) (HCV core peptide 54): 1.01 OD
OD (A492 nm) (HCV core peptide 55): 0.97 OD
OD (A492 nm) (HCV core peptide 57): 0.05 OD
OD (A492 nm) (HCV core peptide 58): 0.05 OD
OD (A492 nm) (HCV core peptide 60): 0.06 OD
OD (A492 nm) (HCV core peptide 61): 0.05 OD
OD (A492 nm) (HCV core peptide 62): 0.05 OD
OD (A492 nm) (HCV core peptide 64): 0.04 OD
OD (A492 nm) (HCV core peptide 67): 0.05 OD
OD (A492 nm) (HCV core peptide 74): 0.05 OD
OD (A492 nm) (HCV core peptide 79): 0.05 OD
OD (A492 nm) (HCV core peptide 83): 0.05 OD
